Results reported in doi:10.1101/2020.11.08.373522, “The DEAD-box RNA helicase Ded1 from yeast is associated with the signal recognition particle (SRP), and its enzymatic activity is regulated by SRP21” (bioRxiv, 2020).

T1: Recombinant His-tagged SRP21 (S. cerevisiae, UniProt P32342 1-167)
T1 construct: SRP21 of the yeast signal recognition particle; subcloned into the NdeI and XhoI sites of pET22b; source: E. coli Rosetta (DE3), pET22b, purified (Ni-NTA)
T1 sequence (looked up): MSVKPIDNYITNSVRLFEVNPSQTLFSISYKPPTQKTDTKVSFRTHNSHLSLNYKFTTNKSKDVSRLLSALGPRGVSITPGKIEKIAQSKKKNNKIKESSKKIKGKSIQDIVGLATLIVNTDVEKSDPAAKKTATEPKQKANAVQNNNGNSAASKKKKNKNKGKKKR


Legend:
Settings in all cases: both partners purified
Recombinant Ded1-His [1] = molecular target: T2, Recombinant Ded1-His (S. cerevisiae, UniProt P06634 1-604); experiment: co-IP; as a3 but purified Ded1 with combinations of purified SRP proteins (SRP21 with SRP14; SRP54 with Sec65; SRP14, SRP21, SRP54 and Sec65 together); recovered with Ded1-specific IgG on protein A-Sepharose beads; SDS-PAGE, Coomassie blue
T2 construct: Ded1, DEAD-box RNA helicase of budding yeast, wild type, recombinant; also called purified Ded1

[2] = molecular target: T1, Recombinant His-tagged SRP21; experiment: as above
Recombinant Ded1-His [3] = molecular target: T2, Recombinant Ded1-His; experiment: co-IP; purified Ded1 (4 µg) with one purified SRP protein (4-6 µg), no RNA, 300 µl 1X PBS with 2 mM MgCl2, 45 min at 30°C; recovered with Ded1-specific IgG cross-linked to protein A-Sepharose beads, 1 h at 18°C; 12% SDS-PAGE, Coomassie blue

T2 sequence (P06634 whole entry): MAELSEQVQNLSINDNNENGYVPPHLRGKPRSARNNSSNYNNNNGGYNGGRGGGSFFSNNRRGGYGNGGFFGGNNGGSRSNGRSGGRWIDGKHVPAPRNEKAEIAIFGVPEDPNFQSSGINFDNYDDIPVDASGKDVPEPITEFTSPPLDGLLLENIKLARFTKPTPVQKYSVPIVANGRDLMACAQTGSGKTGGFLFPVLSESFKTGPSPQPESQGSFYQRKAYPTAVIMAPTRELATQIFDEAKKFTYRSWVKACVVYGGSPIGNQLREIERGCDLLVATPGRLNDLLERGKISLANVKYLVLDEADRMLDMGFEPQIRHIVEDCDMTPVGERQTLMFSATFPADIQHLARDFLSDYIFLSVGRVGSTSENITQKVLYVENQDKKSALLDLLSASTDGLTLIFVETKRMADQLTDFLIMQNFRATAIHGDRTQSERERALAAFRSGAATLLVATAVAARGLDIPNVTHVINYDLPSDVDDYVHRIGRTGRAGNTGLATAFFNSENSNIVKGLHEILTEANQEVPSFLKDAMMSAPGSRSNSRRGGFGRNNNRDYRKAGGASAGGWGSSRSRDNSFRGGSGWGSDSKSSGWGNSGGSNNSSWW

Row | binding result (Recombinant Ded1-His [1]) | binding result [2] | binding result (Recombinant Ded1-His [3]) | Binder
1 | binds | binds |  | Recombinant His-tagged SRP14 (natural protein, S. cerevisiae, UniProt P38985 1-146, looked up, SRP14 of the yeast signal recognition particle; subcloned into the NdeI and XhoI sites of pET22b; source: E. coli Rosetta (DE3), pET22b, purified (Ni-NTA)) MANTGCLSPGAFLSKVPEFFQTANEKHITVRLTAKRLIEHDPVEGNLEFDSTNHPDYDVSKKASEISVSSRSDREYPLLIRMSYGSHDKKTKCSTVVKASELDQFWQEYSSVFKGGMQNLIKKKKKKSKNGTISKTGKKNKVAKKN
2 |  |  | binds | Recombinant His-tagged Sec65 (natural protein, S. cerevisiae, UniProt P29478 1-273, looked up, Sec65 of the yeast signal recognition particle; source: E. coli Rosetta (DE3), pET19b, purified (Ni-NTA)) MPRLEEIDDFNDIDDLDMELAELDPSLRTPIAPKITPKVVRSQDQENPAFLPGTNNNSNSNNNSSNEKEQLSFINPKTGKVERSEAISKKDLEEVKRFQVLYPCYFDINRSHKEGRRVPKELAVENPLAKTMADAVRELGILCIFEGEKCHPQDFGNPGRIRVLFKENGQLIGAATKFKGGKRQLMKAVGEYMKRHPTTIESLREIPYGPDFDNIEFKKIPRVKGFKMNEIVPLHSPFLMGHPMTKSVYETPKITAAEKSFKPPKNKYKVVRR
